# Test results as given in US5888811A, “Corticotropin-releasing hormone receptor” (DuPont Pharmaceuticals Company, priority 1997, dated 1999).
# Where no end group is shown, it is not given here.
# What was measured:
# CRHR2 γ = target: T1, CRHR2 γ (Homo sapiens, UniProt Q13324, DEL106-106); test: Whole cell adenylate cyclase assay (cAMP accumulation) in HEK293EBNA cells expressing CRHR2γ; format: cell-based; conditions: rank order only; summary statement
# T1 sequence (Q13324 with tags, fused parts or gaps DEL106-106): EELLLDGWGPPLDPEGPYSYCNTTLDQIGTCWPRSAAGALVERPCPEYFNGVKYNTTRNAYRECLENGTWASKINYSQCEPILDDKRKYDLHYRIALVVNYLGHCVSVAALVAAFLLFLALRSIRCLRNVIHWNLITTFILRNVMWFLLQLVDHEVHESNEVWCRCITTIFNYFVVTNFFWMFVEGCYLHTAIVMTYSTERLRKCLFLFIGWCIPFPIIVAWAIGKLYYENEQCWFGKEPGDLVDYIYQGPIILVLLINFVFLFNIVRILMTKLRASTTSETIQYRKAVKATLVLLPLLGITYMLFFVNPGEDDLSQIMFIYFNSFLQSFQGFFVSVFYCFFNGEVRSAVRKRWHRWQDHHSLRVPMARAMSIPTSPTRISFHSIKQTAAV
# Procedure: HEK293EBNA cells expressing the CRHR2 γ were incubated in DMEM with low serum (0.1% FBS) at 37° C., 5% CO2 for at least 2 hrs before the addition of isobytylmethoxyxanthine (IBMX) to the media at a final concentration of 0.1 mM. The cells were incubated with the IBMX for 30 minutes; test peptides or compounds were then added to the media and incubated therein for 25-30 min. The media was then aspirated from the cells and replaced with ice cold sodium acetate buffer containing 1 mM IBMX. The cells were then disrupted by a freeze-thaw, followed by sonication. Supernatants were assayed for cAMP levels with PerSeptive Diagnostics EIA Kit.
# CRHR2 γ receptor = target: T2, CRHR2 γ receptor (Homo sapiens, UniProt Q13324, DEL106-106); test: Displacement of 125I-tyr-0-sauvagine from membranes of HEK293EBNA cells expressing CRHR2γ; format: binding; conditions: 60-70 pM 125I-tyr-0-sauvagine; 23° C., 4 hours; read-out: approximate IC50 for displacement of 125I-tyr-0-sauvagine
# T2 construct: the full length CRHR2 γ cDNA (original cDNA library clone) was subcloned; expressed in transfected cells; membranes
# T2 sequence (Q13324 with tags, fused parts or gaps isoform Q13324-3 DEL92-92): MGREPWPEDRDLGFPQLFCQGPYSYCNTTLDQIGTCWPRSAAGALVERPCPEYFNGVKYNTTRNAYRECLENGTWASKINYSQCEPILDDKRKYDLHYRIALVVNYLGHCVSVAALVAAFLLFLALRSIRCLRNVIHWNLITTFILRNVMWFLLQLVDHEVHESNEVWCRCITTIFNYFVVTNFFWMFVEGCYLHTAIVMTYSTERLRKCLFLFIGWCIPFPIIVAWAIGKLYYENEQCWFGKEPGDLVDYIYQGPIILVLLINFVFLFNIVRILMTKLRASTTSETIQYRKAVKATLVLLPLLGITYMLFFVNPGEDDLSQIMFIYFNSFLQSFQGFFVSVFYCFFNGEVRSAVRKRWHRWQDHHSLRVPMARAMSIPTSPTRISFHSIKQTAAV
# Procedure: Buffer consisted of 50 mM HEPES, 10 mM MgCI2, 2 mM EGTA, and 1 μg/ml each of aprotinin, leupeptin, and pepstatin at a final pH of 7.0. Bacitracin at 0.15 mM and ovalbumin at 0.1% were added to the buffer on the day of use. Assays were performed at 23° C. for 4 hours in a final volume of 200 μl in 96-well microtiter plates. Reactions were initiated by the addition of 10-20 μg of membrane homogenates and terminated by rapid filtration through presoaked (0.3% polyethyleneimine) glass fiber filters using an Inotech 96-well harvester. The filters were washed quickly 3×with ice-cold solution (PBS+0.01% TritonX-100, pH7.2), dried briefly, then placed into polystyrene tubes and counted on an Isomedic 10/880 γ counter (counting efficiency ~80%). Data was analyzed by nonlinear regression analysis using the computer program MacLigand. Determinations were made from at least 3 separate experiments.
Substance,"potency of stimulation of adenylate cyclase activity (rank order), measured by intracellular cAMP accumulation (CRHR2 γ)",IC50 (CRHR2 γ receptor)
"r/h CRH: rat/human corticotropin-releasing hormone, agonist peptide",sauvagine>urotensin>rat/human CRH,–
"urocortin: mammalian neuropeptide related to fish urotensin I and to corticotropin-releasing factor (DNPSLSIDLTFHLLRTLLELARTQSQRERAEQNRIIFDSV; ends and bridges not checked; UniProt P55089 83-122, looked up)",–,~2 nM
